# Measurements: the supplement of paper PMC10724198
# ± gives the standard deviation of the averaged measurements.
# Test system: Saccharomyces cerevisiae
# Experiment: protein stability index of tFT-peptide fusion (C-terminal peptide) (PSI (0-1 scale)); higher = more stable (slower turnover)
# Settings: genetic background: wild type; temperature: 30 C
# Protocol: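 Multiplexed protein stability (MPS) profiling in S. cerevisiae. Random 12-aa peptides (tFT-X12 library) are fused to the C-terminus of a sfGFP-mCherry tandem fluorescent timer, after mCherry and a GGGS linker. Cells are FACS-sorted into 8 mCherry/sfGFP bins and deep-sequenced. The protein stability index (PSI) is the read-weighted bin average, scaled from 0 (unstable) to 1 (stable). Only peptides with >10 reads are reported; cells were grown at 30 °C in SC-His with glucose.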
# 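Also: PSI is a weighted mean of sequencing reads over stability bins, variants kept only with over 10 reads, mCherry proximal and sfGFP distal, peptide attached via GGGS linker.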
sequence,measurement,value
SWALELARPGEG,protein stability index,0.718 ± 0.013
CCGGRTWFVCGV,protein stability index,0.699 ± 0.041
PTGQSSVESGAG,protein stability index,0.693 ± 0.088
GAVSRRALPRRP,protein stability index,0.709 ± 0.016
RPNWSRFTSIYA,protein stability index,0.653 ± 0.016
VGVGNRRWGGGV,protein stability index,0.679 ± 0.014
GRVVVKTFRDFF,protein stability index,0.635 ± 0.064
AMAMSSGQCFSS,protein stability index,0.67674 ± 0.00043
GFCSGGVFVEWV,protein stability index,0.754 ± 0.065
KLKKNKTREMET,protein stability index,0.789 ± 0.018
VACCKIRSGKSH,protein stability index,0.687 ± 0.056
VVSQSPTLGSNY,protein stability index,0.655 ± 0.022
PARRPPLPRLFL,protein stability index,0.665 ± 0.032
PLPRPVLPPLFS,protein stability index,0.739 ± 0.073
FEDIPSMEYRSI,protein stability index,0.702 ± 0.05
RPPLIPAALLFL,protein stability index,0.589 ± 0.048
PPPLHPRYDPPA,protein stability index,0.685 ± 0.025
GLGLVSWEAGGG,protein stability index,0.702 ± 0.017
PPRPSPPPPPRS,protein stability index,0.735 ± 0.09
SLGAHHAAFRVV,protein stability index,0.63 ± 0.044
KMSEERIGIEKN,protein stability index,0.7038 ± 0.0029
FYGLPSVVCGWF,protein stability index,0.671 ± 0.025
RSPTRHAPPRPV,protein stability index,0.639 ± 0.095
PSSPPLPPPSPP,protein stability index,0.644 ± 0.03
SSLDTPSFDSSL,protein stability index,0.675 ± 0.018
GAGLLRLWEVGG,protein stability index,0.733 ± 0.049
APTPACTRPSVA,protein stability index,0.693 ± 0.033
YPIFSPFSLPAL,protein stability index,0.59 ± 0.0073
LIRRTECPRSTS,protein stability index,0.6782 ± 0.0048
KELNRRTNSPSE,protein stability index,0.644 ± 0.046
VCVDLFGLRASA,protein stability index,0.631 ± 0.044
VFLRVLLECLDF,protein stability index,0.5666 ± 0.0036
LSSSTHNLDFLQ,protein stability index,0.698 ± 0.041
PPGPGRAPVRPA,protein stability index,0.623 ± 0.033
LHTLPLVLSLPA,protein stability index,0.534 ± 0.025
CAGLIDLVGDVS,protein stability index,0.654 ± 0.018
IFIPRFDLPSFP,protein stability index,0.788 ± 0.16
PSPLRASPTAVF,protein stability index,0.62 ± 0.013
ITSSPSSPPAPP,protein stability index,0.634 ± 0.0096
LGVWGGGRGVRG,protein stability index,0.7206 ± 0.0051
SVYTTGHTHTGR,protein stability index,0.626 ± 0.17
YEEGRGEWIKKI,protein stability index,0.632 ± 0.051
KKIRGNSQLHPG,protein stability index,0.63 ± 0.015
PQPLFLPSPLSR,protein stability index,0.702 ± 0.06
GREEDLVAPPFN,protein stability index,0.715 ± 0.054
APPPPGPLPPPS,protein stability index,0.698 ± 0.025
SCLFRVFMFHFS,protein stability index,0.553 ± 0.04
LFSSLLLPNALR,protein stability index,0.69 ± 0.038
PIPLPLSPPLPT,protein stability index,0.73 ± 0.011
GGTGGRLGVGHV,protein stability index,0.704 ± 0.073
RKVTSIESGVMT,protein stability index,0.655 ± 0.038
RGFGFAYVSEHI,protein stability index,0.708 ± 0.075
IQANLPLLTNQE,protein stability index,0.6631 ± 0.0017
PSPSPSPPLPPP,protein stability index,0.652 ± 0.0077
LGKAVSDMDETH,protein stability index,0.687 ± 0.026
QGELHRDVYIVI,protein stability index,0.6793 ± 0.0013
EKKKKNKNQEKQ,protein stability index,0.671 ± 0.044
SGSGCSDRRPSR,protein stability index,0.699 ± 0.02
KKQNRTRLKKSK,protein stability index,0.702 ± 0.03
LSDKTALDRPVH,protein stability index,0.625 ± 0.057
KQIPLFILRPQT,protein stability index,0.704 ± 0.1
IREQGQSLCKST,protein stability index,0.603 ± 0.029
TAAHRASGEIAC,protein stability index,0.684 ± 0.062
SLGLALSLRSSV,protein stability index,0.6361 ± 0.0054
PLFLSLPLSFPS,protein stability index,0.697 ± 0.0058
GTRQWPARSDVV,protein stability index,0.692 ± 0.031
SRVAEIERVQWL,protein stability index,0.655 ± 0.038
VTDTSCRAEVEQ,protein stability index,0.701 ± 0.059
RCFLFSPCWAFS,protein stability index,0.5889 ± 0.002
GFGKRGKDQDTY,protein stability index,0.595 ± 0.033
RLRKEKGKKIQY,protein stability index,0.697 ± 0.073
QVASVTSLLPYS,protein stability index,0.75 ± 0.032
YSQSRPYFRIPG,protein stability index,0.647 ± 0.029
GMWGGLSPFLGQ,protein stability index,0.691 ± 0.015
SGVRAAGEGDSE,protein stability index,0.735 ± 0.033
VFLRGGVLPLRR,protein stability index,0.691 ± 0.012
VAVRGGSGDWGR,protein stability index,0.713 ± 0.023
EGHREARGGMAR,protein stability index,0.673 ± 0.018
TLTVCVNQGMTM,protein stability index,0.668 ± 0.024
PHRPRDFALTPS,protein stability index,0.6905 ± 0.0048
RPKVSRIKENKY,protein stability index,0.727 ± 0.02
FSSLFLSLLCPP,protein stability index,0.727 ± 0.073
DESWCVPCPSSL,protein stability index,0.648 ± 0.0065
DTDDARGVWGSV,protein stability index,0.7151 ± 0.0058
PLPPPLPPPSPP,protein stability index,0.647 ± 0.033
LVRPGSTRDKRT,protein stability index,0.736 ± 0.034
SCVFPSSCFVLI,protein stability index,0.607 ± 0.019
CPLPLPPLHESF,protein stability index,0.674 ± 0.031
VGVRCVGVLFGV,protein stability index,0.637 ± 0.0072
VEFGIFACFTRP,protein stability index,0.6687 ± 0.0019
SPSCSLLCPLPR,protein stability index,0.72 ± 0.028
WGGTGALGTVRW,protein stability index,0.759 ± 0.028
PTTAVNLPQGGT,protein stability index,0.68 ± 0.063
LPQLPNSRRLPL,protein stability index,0.648 ± 0.049
VVSITYCGQGGG,protein stability index,0.694 ± 0.045
GGGRYCADDGGR,protein stability index,0.763 ± 0.051
PRRPAPSPLPTP,protein stability index,0.718 ± 0.2
GGRSGVSGVVAG,protein stability index,0.7021 ± 0.0049
